6 molecules from patent publication US20240166767A1 (SCIRHOM, published 2024) can be followed below.

By Kd is commonly meant the constant that tells how readily two partners part at equilibrium. A high value points to lower affinity.

Numbering of substitutions follows the chain as printed.

Assay [1] deals with T1, human iRhom2 full length wild type C-terminally tagged with 3 consecutive copies of the T7 epitope (UniProt Q6PJF5 1-856).
T1 chain: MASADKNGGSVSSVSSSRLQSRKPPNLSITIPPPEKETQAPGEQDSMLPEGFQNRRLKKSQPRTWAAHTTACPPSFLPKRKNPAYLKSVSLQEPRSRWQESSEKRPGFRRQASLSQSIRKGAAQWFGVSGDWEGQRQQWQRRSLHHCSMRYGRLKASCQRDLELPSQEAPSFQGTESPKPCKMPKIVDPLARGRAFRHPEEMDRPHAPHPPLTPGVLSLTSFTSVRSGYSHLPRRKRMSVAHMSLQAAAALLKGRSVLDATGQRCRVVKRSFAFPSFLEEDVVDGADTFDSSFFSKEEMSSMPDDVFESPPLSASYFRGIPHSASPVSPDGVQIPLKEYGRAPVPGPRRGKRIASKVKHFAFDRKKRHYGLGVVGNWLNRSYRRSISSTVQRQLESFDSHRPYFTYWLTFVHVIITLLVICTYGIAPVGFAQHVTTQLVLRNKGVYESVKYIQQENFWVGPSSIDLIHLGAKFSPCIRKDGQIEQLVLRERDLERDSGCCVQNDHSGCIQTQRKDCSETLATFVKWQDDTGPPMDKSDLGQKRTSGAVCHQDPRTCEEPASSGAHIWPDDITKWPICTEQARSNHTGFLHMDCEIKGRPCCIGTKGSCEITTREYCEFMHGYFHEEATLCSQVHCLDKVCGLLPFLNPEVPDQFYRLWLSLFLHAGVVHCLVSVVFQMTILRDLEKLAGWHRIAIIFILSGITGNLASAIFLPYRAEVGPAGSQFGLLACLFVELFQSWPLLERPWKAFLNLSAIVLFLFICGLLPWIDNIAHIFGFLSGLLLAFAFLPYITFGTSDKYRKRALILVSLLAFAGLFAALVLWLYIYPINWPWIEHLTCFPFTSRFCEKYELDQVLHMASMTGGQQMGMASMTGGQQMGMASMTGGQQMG
Briefly: FACS Scatchard.

In assay [2] the target is T2, mouse iRhom2 full length wild type C-terminally tagged with 3 consecutive copies of the T7 epitope (mouse, UniProt Q80WQ6 1-827).
T2 construct: also called miR2-FL-WT-T7; mouse iRhom2 variant
T2 sequence: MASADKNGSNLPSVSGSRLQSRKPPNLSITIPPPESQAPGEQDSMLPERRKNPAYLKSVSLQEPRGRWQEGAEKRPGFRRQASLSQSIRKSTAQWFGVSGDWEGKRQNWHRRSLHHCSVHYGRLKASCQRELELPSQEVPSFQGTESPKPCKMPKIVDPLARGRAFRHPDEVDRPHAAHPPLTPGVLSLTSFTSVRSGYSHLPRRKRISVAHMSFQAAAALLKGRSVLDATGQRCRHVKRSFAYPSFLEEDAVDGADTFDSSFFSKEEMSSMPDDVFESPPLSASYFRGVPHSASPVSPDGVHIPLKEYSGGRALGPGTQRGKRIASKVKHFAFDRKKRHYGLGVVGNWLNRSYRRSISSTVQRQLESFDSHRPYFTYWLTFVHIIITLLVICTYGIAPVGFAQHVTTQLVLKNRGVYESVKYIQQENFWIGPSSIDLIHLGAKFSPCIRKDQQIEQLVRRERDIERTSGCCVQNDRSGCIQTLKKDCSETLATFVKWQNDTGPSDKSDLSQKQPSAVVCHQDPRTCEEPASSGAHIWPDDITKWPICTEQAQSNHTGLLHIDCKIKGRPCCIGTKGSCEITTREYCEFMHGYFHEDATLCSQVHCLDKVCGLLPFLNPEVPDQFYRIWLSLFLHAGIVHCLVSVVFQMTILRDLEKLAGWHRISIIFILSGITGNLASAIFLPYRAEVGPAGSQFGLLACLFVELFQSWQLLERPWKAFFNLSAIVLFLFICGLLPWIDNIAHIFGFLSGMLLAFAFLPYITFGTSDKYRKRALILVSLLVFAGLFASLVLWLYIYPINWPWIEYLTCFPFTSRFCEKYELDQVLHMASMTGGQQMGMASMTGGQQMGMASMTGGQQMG
Briefly: FACS on MEF-DKO-miR2-FL-WT-T7 cells. As to the method:
In brief, immortalized MEF-DKO-EV control cells, MEF-DKO-hiR2-FL-WT-T7 cells and MEF-DKO-miR2-FL-WT-T7 cells were harvested with 10 mM EDTA in PBS, washed and resuspended in FACS buffer (PBS, 3% FBS, 0.05% sodium azide), and seeded in Nunc U-bottom 96-well plates (Thermo Fisher Scientific, USA) at approximately 3×10⁵ cells per well. To pellet cells and remove supernatants, the plates were centrifuged at 1,500 rpm and 4° C. for 3 minutes. For primary staining, cells were resuspended in 100 μl per well of either FACS buffer alone (controls), mouse monoclonal anti-T7 IgG (Merck Millipore, USA) at 3 μg/ml FACS buffer or the humanized antibodies 16-B-03, 16-B-05, 16-B-07, 23-B-04, 42-B-02 and 42-B-04 of the invention also at 3 μg/ml FACS buffer and incubated on ice for 1 hour. Afterwards, plates were centrifuged at 1,500 rpm and 4° C. for 3 minutes and washed twice with 200 μl per well of FACS buffer. For secondary staining of previous anti T7 staining, cells were spun down and resuspended in 100 μl per well of PE-conjugated goat anti-mouse IgG F(ab′)2 detection fragment (Dianova, Germany) diluted 1:100 in FACS buffer. For secondary staining of previous staining with humanized antibodies of invention, cells were spun down and resuspended in 100 μl per well of PE-conjugated goat anti-human IgG F(ab′)2 detection fragment (Dianova, Germany) diluted 1:100 in FACS buffer. Protected from light, the cell suspensions were incubated on ice for 1 hour. Plates were then centrifuged at 1,500 rpm and 4° C. for 3 minutes and washed three times with 200 μl per well of FACS buffer. Finally, cells were resuspended in 150 μl per well of FACS buffer and analyzed using a BD Accuri™ C6 Plus flow cytometer (Becton Dickinson, Germany).

B1: humanized antibody 16-B-07 (antibody, V domains shown)
VH: QVTLRESGPALVKPTQTLTLTCTFSGFSLSTFALGVGWIRQPPGKALEWLAHIWWDEDKYYNPALKSRLTISKDTSKNQVVLTITNMDPVDTATYYCARITTYYYGMDYWGQGTLVTVSS
VL: EIVMTQSPDFQSVTPKEKVTITCRASQSIGNHLHWYQQKPDASPKLLIKYASQSISGVPSRFSGSGSGTDFTLTINSLEAEDAATYFCQQSYQWPLTFGQGTKLEIK
notes: Tested as whole humanized antibody produced in CHO cells and detected with anti-human IgG; the general methods speak of human IgG1/Kappa; also called clone 16-B-07
The molecule B1 yielded an equilibrium dissociation constant (Kd) in assay [1] of 0.99 nM. For the same molecule, the binding result in assay [2] is reported as “no binding (tested: 3 µg/ml)”.

B2: humanized antibody 16-B-05 (antibody, V domains shown)
VH: B1 VH
VL: B1 VL with Q93N
notes: Tested as whole humanized antibody produced in CHO cells and detected with anti-human IgG; the general methods speak of human IgG1/Kappa; The printed LCVD reads SRESGSG where the printed cDNA encodes SRFSGSG; also called clone 16-B-05
For the molecule B2, in assay [1], the Kd was 1.07 nM. In assay [2], the binding result is on record as “no binding (tested: 3 µg/ml)”.

B3: humanized antibody 16-B-03 (antibody, V domains shown)
VH: B1 VH with E57D
VL: B1 VL
notes: Tested as whole humanized antibody produced in CHO cells and detected with anti-human IgG; the general methods speak of human IgG1/Kappa; also called clone 16-B-03
In assay [1], B3 gave a Kd of 0.67 nM. The binding result in assay [2] is recorded as “no binding (tested: 3 µg/ml)”.

B4: humanized antibody 42-B-04 (antibody, V domains shown)
VH: QVTLRESGPALVKPTQTLTLTCTFSGFSLSTFGRGVGWIRQPPGKALEWLAHIWWDDEKYYNSALKSRLTISKDTSKNQVVLTITNMDPVDTATYYCARIQNYGSNYWYFDVWGQGTLVTVSS
VL: AIQLTQSPSSLSASVGDRVTITCRASSRISYMFWYQQKPGKAPKVLIYDTSNLASGVPSRFSGSGSGTDYTLTISSLQPEDFATYYCQQWNAYPLTFGQGTKLEIK
notes: Tested as whole humanized antibody produced in CHO cells and detected with anti-human IgG; the general methods speak of human IgG1/Kappa; also called clone 42-B-04
The molecule B4 showed a dissociation constant Kd in assay [1] of 0.48 nM. For the same molecule, the binding result in assay [2] is “no binding (tested: 3 µg/ml)”.

B5: humanized antibody 42-B-02 (antibody, V domains shown)
VH: B4 VH
VL: B4 VL with A92S
notes: Tested as whole humanized antibody from transient expression of heavy chain/kappa light chain pairs in CHO cells, detected with anti-human IgG; the general methods speak of human IgG1/Kappa; also called clone 42-B-02
In assay [1], B5 registered a Kd of 0.5 nM. For the same molecule, the binding result in assay [2] is listed as “no binding (tested: 3 µg/ml)”.

B6: humanized antibody 23-B-04 (antibody, V domains shown)
VH: B4 VH with R34M, Q101S, D111N
VL: B4 VL with R28S, I29V, F33Y
notes: Tested as whole humanized antibody produced in CHO cells and detected with anti-human IgG; the general methods speak of human IgG1/Kappa; also called clone 23-B-04
As to B6, the equilibrium dissociation constant (Kd) in assay [1] is 0.58 nM. In assay [2], the binding result was “no binding (tested: 3 µg/ml)”.
